From paper PMC10397247
One block for each binder: values may come before it.

Columns and labels:
[1] = biological target: T1, 4H953-bH; assay: two-hybrid library CCNG1;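 also: natural log of median RNA to DNA barcode read ratio; higher means stronger binding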
T1 chain: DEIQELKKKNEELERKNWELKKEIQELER

[2] = biological target: T2, 4H855-bH; assay: two-hybrid library CCNG1;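 also: natural log of median RNA to DNA barcode read ratio; higher means stronger binding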
T2 chain: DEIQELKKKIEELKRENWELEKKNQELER

[3] = biological target: T3, 4H918-bH; assay: two-hybrid library CCNG1;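 also: natural log of median RNA to DNA barcode read ratio; higher means stronger binding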
T3 chain: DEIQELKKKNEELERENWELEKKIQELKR

[4] = biological target: T4, 4H968-bH; assay: two-hybrid library CCNG1;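 also: natural log of median RNA to DNA barcode read ratio; higher means stronger binding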
T4 chain: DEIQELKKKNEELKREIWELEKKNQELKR

[5] = biological target: T5, 4H797-bH; assay: two-hybrid library CCNG1;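 also: natural log of median RNA to DNA barcode read ratio; higher means stronger binding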
T5 chain: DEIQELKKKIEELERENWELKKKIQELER

[6] = biological target: T6, 4H780-bH; assay: two-hybrid library CCNG1;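 also: natural log of median RNA to DNA barcode read ratio; higher means stronger binding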
T6 chain: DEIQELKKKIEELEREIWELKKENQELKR

[7] = biological target: T7, 4H3162-AA; assay: two-hybrid library CCmax
T7 chain: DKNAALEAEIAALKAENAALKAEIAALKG

[8] = biological target: T8, 4H32-AA; assay: two-hybrid library CCmax; settings: mean of both orientations
T8 chain: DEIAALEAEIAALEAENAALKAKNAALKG

[9] = biological target: T9, 4H3865-AA; assay: two-hybrid library CCmax; settings: mean of both orientations
T9 chain: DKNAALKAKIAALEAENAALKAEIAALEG

[10] = biological target: T10, 4H3413-AA; assay: two-hybrid library CCmax; settings: mean of both orientations
T10 chain: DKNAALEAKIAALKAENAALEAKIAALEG

[11] = biological target: T11, 4H3378-AA; assay: two-hybrid library CCmax; settings: mean of both orientations
T11 chain: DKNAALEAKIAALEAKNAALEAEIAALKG

[12] = biological target: T12, 4H3718-AA; assay: two-hybrid library CCmax; settings: mean of both orientations
T12 chain: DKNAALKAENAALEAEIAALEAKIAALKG

[13] = biological target: T13, 4H3631-AA; assay: two-hybrid library CCmax; settings: mean of both orientations
T13 chain: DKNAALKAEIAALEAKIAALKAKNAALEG

[14] = biological target: T14, 4H3606-AA; assay: two-hybrid library CCmax; settings: mean of both orientations
T14 chain: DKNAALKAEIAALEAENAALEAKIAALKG

[15] = biological target: T15, 4H384-AA; assay: two-hybrid library CCmax; settings: mean of both orientations
T15 chain: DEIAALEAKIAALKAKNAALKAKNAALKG

[16] = biological target: T16, 4H340-AA; assay: two-hybrid library CCmax; settings: mean of both orientations
T16 chain: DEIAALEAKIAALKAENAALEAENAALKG

[17] = biological target: T17, 4H982-AA; assay: two-hybrid library CCmax; settings: mean of both orientations
T17 chain: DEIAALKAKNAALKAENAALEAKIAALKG

[18] = biological target: T18, 4H697-AA; assay: two-hybrid library CCmax; settings: mean of both orientations
T18 chain: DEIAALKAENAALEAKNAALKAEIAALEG

[19] = biological target: T19, 4H3697-AA; assay: two-hybrid library CCmax; settings: mean of both orientations
T19 chain: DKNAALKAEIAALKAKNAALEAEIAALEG

[20] = biological target: T20, 4H3588-AA; assay: two-hybrid library CCmax; settings: mean of both orientations
T20 chain: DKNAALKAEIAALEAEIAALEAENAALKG

[21] = biological target: T21, 4H754-bH; assay: two-hybrid library CCNG1
T21 chain: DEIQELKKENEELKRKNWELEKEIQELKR

[22] = biological target: T22, 4H908-bH; assay: two-hybrid library CCNG1
T22 chain: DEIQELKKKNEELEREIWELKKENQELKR

[23] = biological target: T23, 4H967-bH; assay: two-hybrid library CCNG1
T23 chain: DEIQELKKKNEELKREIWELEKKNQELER

[24] = biological target: T24, 4H883-bH; assay: two-hybrid library CCNG1
T24 chain: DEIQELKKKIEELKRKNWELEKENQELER

interaction score [1]: -0.153
interaction score [2]: 0.0924
interaction score [3]: 0.556
interaction score [4]: -0.28
interaction score [5]: -0.654
interaction score [6]: 1.6
Binder: DEIQELKKKIEELEREIWELKKENQELKR [4H780-bH]

interaction score [7]: 0.942
interaction score [8]: -1.53
interaction score [9]: -0.607
interaction score [10]: -1.04
interaction score [11]: -1.59
interaction score [12]: -1.43
interaction score [13]: -1.62
interaction score [14]: -0.0579
interaction score [15]: -1.58
interaction score [16]: -1.4
interaction score [17]: -1.88
interaction score [18]: -1.39
interaction score [19]: -1.2
interaction score [20]: -1.53
Binder: DKNAALEAEIAALKAENAALKAEIAALKG [4H3162-AA]

interaction score [21]: 1.36
interaction score [1]: 0.539
interaction score [2]: -0.362
interaction score [22]: 0.329
interaction score [23]: -0.713
interaction score [3]: 0.604
interaction score [4]: -0.182
interaction score [5]: -0.0415
interaction score [6]: -0.00466
interaction score [24]: -0.29
Binder: DEIQELKKENEELKRKNWELEKEIQELKR [4H754-bH]
